The values below come from article PMC10518009.

For assay [1], the target named is SARS-CoV-2 spike (RBD)-Fc (SARS-CoV-2) (UniProt P0DTC2). The experiment in a line: ELISA; BPS Bioscience #79936 kit: plate coated with spike (RBD)-Fc, serial concentrations of test compound (200-12.5) added, kit completed as in its manual, luminescence.
The target in assay [2] is ACE2-His (human) (UniProt Q9BYF1). The assay can be described thus: ELISA; BPS Bioscience #79936 kit: ACE2-His held on a 96-well nickel-coated plate, test compound (25-200 µg/mL) incubated 60 min at room temperature, then spike (RBD)-Fc added for 60 min, anti-mouse Fc-HRP, chemiluminescence. For orientation: ELISA stands for enzyme-linked immunosorbent assay.
Chain of ACE2-His (human) (Q9BYF1 18-805): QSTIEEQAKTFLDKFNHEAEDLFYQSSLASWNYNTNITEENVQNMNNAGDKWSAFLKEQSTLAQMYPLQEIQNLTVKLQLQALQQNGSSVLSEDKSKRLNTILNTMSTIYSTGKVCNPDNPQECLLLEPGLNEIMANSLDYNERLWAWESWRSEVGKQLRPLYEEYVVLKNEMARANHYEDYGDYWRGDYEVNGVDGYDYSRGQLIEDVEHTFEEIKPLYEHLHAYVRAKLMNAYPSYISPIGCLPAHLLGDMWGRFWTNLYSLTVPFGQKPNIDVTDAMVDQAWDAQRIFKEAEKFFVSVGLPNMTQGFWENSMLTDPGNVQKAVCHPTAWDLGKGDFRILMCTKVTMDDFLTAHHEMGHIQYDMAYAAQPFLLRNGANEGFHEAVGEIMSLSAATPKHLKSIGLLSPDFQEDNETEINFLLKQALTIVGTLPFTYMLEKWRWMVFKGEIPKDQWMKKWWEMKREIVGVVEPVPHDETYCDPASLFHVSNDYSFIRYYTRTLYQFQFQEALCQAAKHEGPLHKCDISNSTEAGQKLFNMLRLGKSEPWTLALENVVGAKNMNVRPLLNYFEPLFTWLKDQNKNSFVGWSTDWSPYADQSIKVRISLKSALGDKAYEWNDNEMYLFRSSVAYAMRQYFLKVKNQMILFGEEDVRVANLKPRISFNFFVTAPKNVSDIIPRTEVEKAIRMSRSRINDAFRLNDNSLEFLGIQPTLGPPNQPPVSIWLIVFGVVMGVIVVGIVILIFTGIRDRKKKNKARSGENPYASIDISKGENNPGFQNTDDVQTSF

bovine lactoferrin (natural protein) came in with a maximum percent inhibition (RBD neutralization) in assay [1] of 94%.

For “bovine lactoferrin (natural protein; other documents disagree on this pair)”, the maximum percent inhibition of ACE2/spike at 200 mg concentration in assay [2] was 33%.
